This is an account of results in patent US20110145941A1 (LAY LINE GENOMICS S P A, published 2011).

Assay [1] addresses T1, human TrkA receptor on the cell surface (human, UniProt P04629 33-796). Put plainly: flow cytometry on TF-1 cells, control immunoglobulin. On the technique in general: Flow cytometry measures light scatter and fluorescence of single cells or particles in a stream.
Assay [2] deals with T1, human TrkA receptor on the cell surface. Put plainly: cell-based or functional assay.
Assay [3] has as its target T2, TrkA-IgG (UniProt P04629 33-423, limits assumed).
T2 construct: also called specific antigen TrkA-IgG; not shown: IgG part of the fusion
Put plainly: SPR (BIACORE 2000), TrkA-IgG immobilised on CM-5 chip, 'separated 1:1' fit. As to the method: Surface plasmon resonance analysis was used to measure the association and dissociation rate constants for binding kinetics of the different antibodies (murine, chimeric, 5 humanised variants) towards TrkA-IgG using BIACORE 2000 (Biacore AB, Uppsala, Sweden). TrkA-IgG was immobilised on a CM-5 sensor chip according to manufacturer's conditions, in a way to achieve an immobilization density of 1100 RU. Each antibody sample was analyzed in antibody concentration ranges of 20-0.63 μg/ml. Calculations from the sensograms were performed by using the BIA evaluation version 3 (1999) software.
Analysis of the individual sets of sensograms was performed with the BIA evaluation version 3 (1999) software. Among the different models tested to fit the kinetics data, the best fitting was obtained with the “separated 1:1” algorithm. In this model, only a defined range of the early association and dissociation curves was used for the calculation.
On the technique in general: Surface plasmon resonance follows binding to a sensor surface in real time, without labels.

Assay [4] concerns the target T1, human TrkA receptor on the cell surface. Put plainly: flow cytometry on TF-1 cells, 4 µg/ml. Details: Geo Mean Fluorescence: reference not given here.
Assay [5] concerns the target T2, TrkA-IgG. Put plainly: SPR (BIACORE 2000), TrkA-IgG immobilised on CM-5 chip, 'separated 1:1' fit; separate experiment.

T2 sequence (P04629 33-423 limits assumed): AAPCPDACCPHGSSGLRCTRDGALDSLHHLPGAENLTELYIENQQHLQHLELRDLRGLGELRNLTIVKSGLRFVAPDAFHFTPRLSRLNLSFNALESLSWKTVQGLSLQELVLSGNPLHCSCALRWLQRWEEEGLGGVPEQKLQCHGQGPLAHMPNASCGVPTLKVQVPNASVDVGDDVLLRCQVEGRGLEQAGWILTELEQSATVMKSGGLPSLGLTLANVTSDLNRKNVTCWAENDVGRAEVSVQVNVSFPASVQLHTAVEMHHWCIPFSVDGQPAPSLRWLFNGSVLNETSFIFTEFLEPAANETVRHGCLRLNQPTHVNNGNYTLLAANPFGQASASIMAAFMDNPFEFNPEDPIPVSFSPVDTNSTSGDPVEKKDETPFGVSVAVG
T1 sequence (P04629 33-796): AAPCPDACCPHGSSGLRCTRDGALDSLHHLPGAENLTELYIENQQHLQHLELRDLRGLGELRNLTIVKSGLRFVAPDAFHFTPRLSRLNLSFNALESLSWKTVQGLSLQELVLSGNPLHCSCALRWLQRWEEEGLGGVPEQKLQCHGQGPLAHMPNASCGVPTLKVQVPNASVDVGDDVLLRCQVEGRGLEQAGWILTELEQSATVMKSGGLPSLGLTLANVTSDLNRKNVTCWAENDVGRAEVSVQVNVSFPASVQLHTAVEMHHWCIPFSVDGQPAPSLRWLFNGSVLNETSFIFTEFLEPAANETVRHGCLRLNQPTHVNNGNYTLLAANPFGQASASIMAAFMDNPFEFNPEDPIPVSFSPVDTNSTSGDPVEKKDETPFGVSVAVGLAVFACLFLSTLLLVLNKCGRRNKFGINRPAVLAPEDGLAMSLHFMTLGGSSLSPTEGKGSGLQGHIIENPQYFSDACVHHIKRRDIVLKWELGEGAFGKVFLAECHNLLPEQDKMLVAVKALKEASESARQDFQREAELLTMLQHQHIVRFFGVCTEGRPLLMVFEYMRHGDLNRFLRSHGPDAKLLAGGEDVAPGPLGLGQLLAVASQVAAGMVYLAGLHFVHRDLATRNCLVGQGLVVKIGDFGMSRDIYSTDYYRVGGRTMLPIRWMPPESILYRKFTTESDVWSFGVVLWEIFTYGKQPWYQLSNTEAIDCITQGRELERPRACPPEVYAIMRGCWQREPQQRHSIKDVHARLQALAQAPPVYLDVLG

As to Human IgG1 standard control (antibody), in assay [1], the Fold Increase was 1 fold and the Geo Mean Fluorescence was found to be 3.5.

B1: muMNACEP (antibody, V domains shown)
VH: EVKLMESGGGLVQPGGSLKLSCAASGFTFSTYTMSWARQTPEKRLEWVAYISKGGGSTYYPDTVKGRFTISRDNAKNTLYLQMSSLKSEDTALYYCARGAMYGNDFFYPMDYWGQQTSVTVSS
VL: DIVLSQSPAIMSASLGEEITLTCSASSSVSYMHWYQQKSGTSPKLLITTTSNLASGVPSRFSGSGSGTFYSLTISSVEAEDAADYYCHQWSSYPWTFGGGTKLEIK
notes: Murine monoclonal antibody as disclosed in EP1181318; also called murine antibody MNAC13; MNAC13
Consider B1, for which the “Proliferation assay on TF1 cells IC50 (µg/ml), Mean” value in assay [2] was determined as 0.54 µg/mL. Moreover, in the assay with TrkA-IgG [3], the dissociation constant Kd – broadly, the free concentration of one partner at which half of the binding sites on the other are occupied at equilibrium, for simple one-to-one binding – is 0.25 nM; the koff – broadly, the rate constant with which the complex falls apart – worked out at 0.000167 s⁻¹; the kon – broadly, a measure of how fast the partners come together – came to 850000 M⁻¹ s⁻¹.

B2: ChimMNAC13 (antibody, V domains shown)
VH: EVKLMESGGGLVQPGGSLKLSCAASGFTFSTYTMSWARQTPEKRLEWVAYISKGGGSTYYPDTVKGRFTISRDNAKNTLYLQMSSLKSEDTALYYCARGAMYGNDFFYPMDYWGQQTSVTVSS
VL: DIVLSQSPAIMSASLGEEITLTCSASSSVSYMHWYQQKSGTSPKLLITTTSNLASGVPSRFSGSGSGTFYSLTISSVEAEDAADYYCHQWSSYPWTFGGGTKLEIK
notes: Corresponds to muMNACEP but has human constant regions instead of mouse constant regions; also called chimNINAC13; mVHEP/mVLEP
Take B2: in assay [2], the “Proliferation assay on TF1 cells IC50 (µg/ml), EXP-1” value (“Proliferation assay … EXP-1” below) amounted to 0.06 µg/mL and the “Proliferation assay on TF1 cells IC50 (µg/ml), EXP-2” value (“Proliferation assay … EXP-2” for short) worked out at 0.58 µg/mL. Moreover, in assay [4], the “Fold Increase” value is 3.2 fold and the “Geo Mean Fluorescence” value turned out to be 11. Further, in the assay with TrkA-IgG [3], binding was characterised by a dissociation constant (Kd) of 0.151 nM.

B3: BXhVH3VL3 (antibody, human IgG1, V domains shown)
VH: EVQLLESGGGLVQPGGSLRLSCAASGFTFSTYTMSWVRQAPGKRLEWVAYISKGGGSTYYPDTVKGRFTISRDNSKNTLYLQMNSLRAEDTAVYYCARGAMYGNDFFYPMDYWGQGTTVTVSS
VL: QIVLTQSPATLSLSPGERATLSCSASSSVSYMHWYQQKPGQSPRLLIYTTSNLASGIPSRFSGSGSGTFYTLTISSLEPEDFAVYYCHQWSSYPWTFGGGTKLEIK
notes: Human IgG1 constant regions (IgG1 expression vectors); also called hVH3/hVL3
As to B3, in assay [2], the “Proliferation assay … EXP-1” value came to 0.41 µg/mL and the “Proliferation assay … EXP-2” value was 2.38 µg/mL. In assay [4], the “Fold Increase” value was 3.6 fold and the “Geo Mean Fluorescence” value is 12.6. In the assay with TrkA-IgG [3], this molecule registered a Kd of 1.45 nM, an off-rate constant (koff) of 0.000442 s⁻¹ and an association rate constant (kon) of 325000 M⁻¹ s⁻¹.

B4: HuMNACWOv (antibody, V domains shown)
VH: EVQLLESGGGLVQPGGSLRLSCAASGFTFSTYTMSWARQAPGKGLEWVAYISKGGGSTYYPDTVKGRFTISRDNSKNTLYLQMNSLRAEDSAVYYCARGAMYGNDFFYPMDYWGQGTLVTVSS
VL: DIVLTQSPSSLSASVGDRVTITCSASSSVSYMHWYQQKPGQAPKLLIYTTSNLASGVPSRFSGSGSGTDYTLTISSLQPEDVATYYCHQWSSYPWTFGGGTKVEIK
notes: Variant of HuMNACWO whose heavy chain CDR3 is replaced with that of muMNACEP; also called hVHWOv/hVLWO; HuVHWOv/HuVLWO
Consider B4, for which, in assay [4], the “Fold Increase” value was 2.6 fold and the “Geo Mean Fluorescence” value was 8.9. Further, in the assay with TrkA-IgG [3], binding was put at a Kd of 2.48 nM, the koff is 0.00386 s⁻¹ and the kon came to 1.62e+06 M⁻¹ s⁻¹.

B5: BXhVH5VL7 (antibody, human IgG1, V domains shown)
VH: EVKLLESGGGLVQPGGSLRLSCAASGFTFSTYTMSWVRQTPGKRLEWVAYISKGGGSTYYPDTVKGRFTISRDNSKNTLYLQMNSLRAEDTAVYYCARGAMYGNDFFYPMDYWGQGTTVTVSS
VL: QIVLTQSPATLSLSPGERATLSCSASSSVSYMHWYQQKPGQSPRLLIYTTSNLASGIPSRFSGSGSGTFYTLTISSLEPEDAADYYCHQWSSYPWTFGGGTKLEIK
notes: Human IgG1 constant regions (IgG1 expression vectors); COS-7 supernatant; also called hVH5/hVL7
B5: in assay [4], the “Fold Increase” value came to 2.5 fold and the “Geo Mean Fluorescence” value worked out at 8.6.

B6: BXhVH5VL6 (antibody, human IgG1, V domains shown)
VH: EVKLLESGGGLVQPGGSLRLSCAASGFTFSTYTMSWVRQTPGKRLEWVAYISKGGGSTYYPDTVKGRFTISRDNSKNTLYLQMNSLRAEDTAVYYCARGAMYGNDFFYPMDYWGQGTTVTVSS
VL: EIVLTQSPATLSLSPGEEATLSCSASSSVSYMHWYQQKPGQSPRLLIYTTSNLASGIPSRFSGSGSGTFYTLTISSLEPEDAADYYCHQWSSYPWTFGGGTKLEIK
notes: Human IgG1 constant regions (IgG1 expression vectors); COS-7 supernatant; also called hVH5/hVL6
With B6, in assay [4], the “Fold Increase” value is 2.6 fold and the “Geo Mean Fluorescence” value was found to be 9.1.

B7: HuMNACWO (antibody, V domains shown)
VH: EVQLLESGGGLVQPGGSLRLSCAASGFTFSTYTMSWARQAPGKGLEWVAYISKGGGSTYYPDTVKGRFTISRDNSKNTLYLQMNSLRAEDSAVYYCARGAMFGNDFFFPMDRWGQGTLVTVSS
VL: DIVLTQSPSSLSASVGDRVTITCSASSSVSYMHWYQQKPGQAPKLLIYTTSNLASGVPSRFSGSGSGTDYTLTISSLQPEDVATYYCHQWSSYPWTFGGGTKVEIK
notes: Prior art humanised antibody; also called humanised antibody MNAC13 disclosed in WO 05/061540; HuVHWO/HuVLWO
In the assay with TrkA-IgG [5], B7 returned a Kd of 41.8 nM, a koff of 0.0309 s⁻¹ and a kon of 739000 M⁻¹ s⁻¹.

B8: BXhVH5VL3 (antibody, human IgG1, V domains shown)
VH: EVKLLESGGGLVQPGGSLRLSCAASGFTFSTYTMSWVRQTPGKRLEWVAYISKGGGSTYYPDTVKGRFTISRDNSKNTLYLQMNSLRAEDTAVYYCARGAMYGNDFFYPMDYWGQGTTVTVSS
VL: QIVLTQSPATLSLSPGERATLSCSASSSVSYMHWYQQKPGQSPRLLIYTTSNLASGIPSRFSGSGSGTFYTLTISSLEPEDFAVYYCHQWSSYPWTFGGGTKLEIK
notes: Human IgG1 constant regions (IgG1 expression vectors); also called hVH5/hVL3
As for B8, in assay [2], the “Proliferation assay … EXP-1” value was found to be 1.4 µg/mL and the “Proliferation assay … EXP-2” value is 1.21 µg/mL. Further, in assay [4], the “Fold Increase” value worked out at 3.9 fold and the “Geo Mean Fluorescence” value came to 13.7. In the assay with TrkA-IgG [3], the Kd worked out at 0.662 nM, the dissociation rate constant (koff) amounted to 0.000638 s⁻¹ and the kon came to 1e+06 M⁻¹ s⁻¹.
